# Columns and labels:
# [1] = target: T1, human full-length recombinant tau (2N4R) (human, UniProt P10636 2-758); assay: SPR, Biacore T200, 25 C, mAb captured by anti-Fc on CM4 chip, tau in solution, 1:1 Langmuir fit
# T1 construct: also called full length tau protein; full-length recombinant Tau protein
# Method: (§1) The interactions of anti-tau antibodies with human full-length recombinant tau (2N4R) were studied by SPR using a Biacore T200 at 25° C. with HBS pH 7.4 buffer, supplemented with 3 mM EDTA, and 0.05% Tween 20. Briefly, a biosensor surface was prepared by coupling a mixture of anti-mouse/anti-human IgG Fcγ-fragment specific antibody to the surface of a CM4 sensor chip using manufacturer's instructions for amine-coupling chemistry (>4000 response units (RU)). The coupling buffer was 10 mM sodium acetate, pH 4.5. The anti-tau antibodies were diluted in the running buffer and injected to obtain enough capture to enable detection of antigen binding. Capture of anti-tau mAbs was followed by injection of recombinantly expressed tau solutions ranging from 0.12 nM to 75 nM at 5-fold dilutions. The association and dissociation were monitored for 3 minutes and 60 min respectively at 50 μL/min flow rate. Regeneration of the sensor surface was performed with 0.85% H₃PO₄. The binding sensorgrams were fitted using to a 1:1 Langmuir binding model to obtain on-rates, off-rates, and affinities. PT1B635 and PT1B901 bound to full length tau protein with similar tight affinities as the parent mAbs, PT/66 or PT1B545 (FIG. 3 and Table 2 below).
# [2] = target: T1, human full-length recombinant tau (2N4R); assay: SPR, Biacore T200, 25 C, mAb captured by anti-Fc on CM4 chip, tau in solution, 1:1 Langmuir fit; koff based on 1-hour limit, 5% dissociation
# Method: as §1
# [3] = target: T1, human full-length recombinant tau (2N4R); assay: SPR, mAb captured, tau in solution, single-cycle kinetics, 1:1 Langmuir fit; koff based on 2-hour limit, 5% dissociation
# [4] = target: T1, human full-length recombinant tau (2N4R); assay: SPR, mAb captured, tau in solution, single-cycle kinetics, 120 min dissociation, 1:1 Langmuir fit
# T1 sequence (P10636 other isoform, or with tags, fused parts or gaps limits assumed): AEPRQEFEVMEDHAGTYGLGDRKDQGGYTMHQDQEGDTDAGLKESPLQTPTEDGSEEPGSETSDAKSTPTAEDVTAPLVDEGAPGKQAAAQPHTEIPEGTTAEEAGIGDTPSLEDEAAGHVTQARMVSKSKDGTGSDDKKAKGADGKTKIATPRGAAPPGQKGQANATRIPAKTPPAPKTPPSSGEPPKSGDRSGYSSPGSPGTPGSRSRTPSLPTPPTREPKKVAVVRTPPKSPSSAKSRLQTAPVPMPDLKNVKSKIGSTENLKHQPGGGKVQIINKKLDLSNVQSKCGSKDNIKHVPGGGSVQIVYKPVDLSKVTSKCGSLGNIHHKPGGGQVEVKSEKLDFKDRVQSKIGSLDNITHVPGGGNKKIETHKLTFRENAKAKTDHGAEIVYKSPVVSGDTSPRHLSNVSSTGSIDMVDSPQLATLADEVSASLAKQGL
Binder,Kd [1] [nM],kon [1] [M⁻¹ s⁻¹],koff [2] [s⁻¹],koff [1] [s⁻¹],koff [3] [s⁻¹],Kd [4] [nM],kon [4] [M⁻¹ s⁻¹]
"PT/66 anti-PHF-Tau monoclonal Ab (mouse parent) (antibody, V domains shown, Murine mAb) VH: QVQLQQPGAELVKPGASVKMSCKASGYTFTSYWITWVKQRPGQGLEWIGDIHPGRGSTKSNEKFKSKATLTVDTSSSTAYMQFSSLTSEDSAVYYCARRWGFDYWGQGTTLTVSS VL: DIVITQDELSNPVTSGESVSISCRSSKSLLYKDGKTYLNWFLQRPGQSPQLLIYLMSTRASGVSDRFSGSGSGTDFTLEISRVKAEDVGVYYCQQLVDYPLTFGAGTKLELK",< 0.031,450000,< 1.42e-05,–,–,–,–
"PT1B545 (antibody, mouse IgG2a, kappa, V domains shown, Recombinant version of the parent mAb PT/66, with mouse constant regions; also called rec. parent; recombinant parent of PT/66) VH: QVQLQQPGAELVKPGASVKMSCKASGYTFTSYWITWVKQRPGQGLEWIGDIHPGRGSTKSNEKFKSKATLTVDTSSSTAYMQFSSLTSEDSAVYYCARRWGFDYWGQGTTLTVSS VL: DIVITQDELSNPVTSGESVSISCRSSKSLLYKDGKTYLNWFLQRPGQSPQLLIYLMSTRASGVSDRFSGSGSGTDFTLEISRVKAEDVGVYYCQQLVDYPLTFGAGTKLELKR",< 0.028,510000,< 1.42e-05,–,–,–,–
"PT1B635 (antibody, human IgG1, kappa, V domains shown, also called humanized PT/66 variant) VH: QVQLVQSGAEVKKPGASVKVSCKASGYTFTSYWITWVRQAPGQGLEWMGDIHPGRGSTKYAQKLQGRVTLTTDTSTSTAYMELRSLRSDDTAVYYCARRWGFDYWGQGTLVTVSS VL: DIVITQTPLSLPVTPGEPASISCRSSKSLLYKDGKTYLNWFLQKPGQSPQLLIYLMSTRASGVPDRFSGSGSGTDFTLKISRVEAEDVGVYYCQQLVDYPLTFGQGTKLEIKR",< 0.041,370000,< 1.42e-05,–,–,–,–
"PT1B901 (antibody, human IgG1, kappa, V domains shown, also called humanized PT/66 variant with G44L in LCDR1) VH: QVQLVQSGAEVKKPGASVKVSCKASGYTFTSYWITWVRQAPGQGLEWMGDIHPGRGSTKYAQKLQGRVTLTTDTSTSTAYMELRSLRSDDTAVYYCARRWGFDYWGQGTLVTVSS VL: DIVITQTPLSLPVTPGEPASISCRSSKSLLYKDLKTYLNWFLQKPGQSPQLLIYLMSTRASGVPDRFSGSGSGTDFTLKISRVEAEDVGVYYCQQLVDYPLTFGQGTKLEIKR",0.059,300000,–,2e-05,–,–,–
"PT1B1183 (antibody, human IgG1, kappa, V domains shown, also called humanized antibody derived from PT1B1153 by modifying the 2nd light chain framework region) VH: QVQLVQSGAEVKKPGASVKVSCKASGYTFTSYWITWVRQRPGQGLEWMGDIHPGRGSTKYAQKLQGRVTMTTDTSTSTAYMELRSLRSDDTAVYYCARRWGFDYWGQGTLVTVSS VL: DIVMTQTPLSSPVTLGQPASISCRSSKSLLYKDGKTYLNWFQQRPGQSPRLLIYLMSTRASGVPDRFSGSGAGTDFTLKISRVEAEDVGVYYCQQLVDYPLTFGQGTKLEIKR",–,–,–,–,< 1.19e-05,< 0.00618,1.99e+06
